Article PMC6926487

Target: GST-Rac1A, active (GTPγs-bound) (Dictyostelium) (UniProt P34144)
Test: pull-down; GST-Rac on glutathione magnetic agarose beads, loaded with GTPγs; Dictyostelium lysate (50 mM Tris HCl pH 8, 100 mM NaCl, 30 mM MgCl2, 0.1% Triton X-100, 1 mM DTT) added for 1 hour at 4°C; immunoblot anti-GFP

GFP-WASP (Dictyostelium Wiskott-Aldrich syndrome protein, wild type) (natural protein)
immunoblot quantification of binding to active Rac1 (%): 1.9%
